Laboratory results from patent US20020103133.

T1: acetyl-G-P-L-G-L-A-L-Dox
T1 chain: XPLGLAL

T2: acetyl-G-P-L-G-L-L-Dox
T2 chain: XPLGLL

T3: acetyl-G-P-L-G-L-Y-Dox
T3 chain: XPLGLY

T4: acetyl-P-L-G-Hof-Orn-L-Dox
T4 chain: XLGXXL

T5: acetyl-P-L-G-Hof-Y-L-Dox
T5 chain: XLGXYL

T6: acetyl-P-L-G-L-A-A-L-Dox
T6 chain: XLGLAAL

T7: acetyl-P-L-G-L-A-L-Dox
T7 chain: XLGLAL

T8: acetyl-P-L-G-L-L-A-L-Dox
T8 chain: XLGLLAL

T9: acetyl-P-L-G-L-L-Dox
T9 chain: XLGLL

T10: acetyl-P-L-G-L-L-S-L-Dox
T10 chain: XLGLLSL

T11: acetyl-P-L-G-L-Y-A-L-Dox
T11 chain: XLGLYAL

T12: acetyl-P-L-G-L-Y-L-Dox
T12 chain: XLGLYL

T13: succinyl-P-L-G-Hof-Y-L-Dox
T13 chain: XLGXYL


Experiments:
[1] = target: T1, acetyl-G-P-L-G-L-A-L-Dox
[2] = target: T2, acetyl-G-P-L-G-L-L-Dox
[3] = target: T3, acetyl-G-P-L-G-L-Y-Dox
[4] = target: T4, acetyl-P-L-G-Hof-Orn-L-Dox
[5] = target: T5, acetyl-P-L-G-Hof-Y-L-Dox
[6] = target: T6, acetyl-P-L-G-L-A-A-L-Dox
[7] = target: T7, acetyl-P-L-G-L-A-L-Dox
[8] = target: T8, acetyl-P-L-G-L-L-A-L-Dox
[9] = target: T9, acetyl-P-L-G-L-L-Dox
[10] = target: T10, acetyl-P-L-G-L-L-S-L-Dox
[11] = target: T11, acetyl-P-L-G-L-Y-A-L-Dox
[12] = target: T12, acetyl-P-L-G-L-Y-L-Dox
[13] = target: T13, succinyl-P-L-G-Hof-Y-L-Dox

| Protein | kcat/Km (cleavage of conjugate, HPLC) [1] [M⁻¹ s⁻¹] | kcat/Km (cleavage of conjugate, HPLC) [2] [M⁻¹ s⁻¹] | kcat/Km (cleavage of conjugate, HPLC) [3] [M⁻¹ s⁻¹] | kcat/Km (cleavage of conjugate, HPLC) [4] [M⁻¹ s⁻¹] | kcat/Km (cleavage of conjugate, HPLC) [5] [M⁻¹ s⁻¹] | kcat/Km (cleavage of conjugate, HPLC) [6] [M⁻¹ s⁻¹] | kcat/Km (cleavage of conjugate, HPLC) [7] [M⁻¹ s⁻¹] | kcat/Km (cleavage of conjugate, HPLC) [8] [M⁻¹ s⁻¹] | kcat/Km (cleavage of conjugate, HPLC) [9] [M⁻¹ s⁻¹] | kcat/Km (cleavage of conjugate, HPLC) [10] [M⁻¹ s⁻¹] | kcat/Km (cleavage of conjugate, HPLC) [11] [M⁻¹ s⁻¹] | kcat/Km (cleavage of conjugate, HPLC) [12] [M⁻¹ s⁻¹] | kcat/Km (cleavage of conjugate, HPLC) [13] [M⁻¹ s⁻¹] |
| --- | --- | --- | --- | --- | --- | --- | --- | --- | --- | --- | --- | --- | --- |
| MMP-2 (protein) YNFFPRKPKWDKNQITYRIIGYTPDLDPETVDDAFARAFQVWSDVTPLRFSRIHDGEADIMINFGRWEHGDGYPFDGKDGLLAHAFAPGTGVGGDSHFDDDELWTLGEGQVVRVKYGNADGEYCKFPFLFNGKEYNSCTDTGRSDGFLWCSTTYNFEKDGKYGFCPHEALFTMGGNAEGQPCKFPFRFQGTSYDSCTTEGRTDGYRWCGTTEDYDRDKKYGFCPETAMSTVGGNSEGAPCVFPFTFLGNKYESCTSAGRSDGKMWCATTANYDDDRKWGFCPDQGYSLFLVAAHEFGHAMGLEHSQDPGALMAPIYTYTKNFRLSQDDIKGIQELYGASPDIDLGTGPTPTLGPVTPEICKQDIVFDGIAQIRGEIFFFKDRFIWRTVTPRDKPMGPLLVATFWPELPEKIDAVYEAPQEEKAVFFAGNEYWIYSASTLERGYPKPLTSLGLPPDVQRVDAAFNWSKNKKTYIFAGDKFWRYNEVKKKMDPGFPKLIADAWNAIPDNLDAVVDLQGGGHSYFFKGAYYLKLENQSLKSVKFGSIKSDWLGC | 8.6e+07 | 3e+07 | 4e+07 | 1.36e+08 | > 1.2e+08 | 1.1e+08 | 5.3e+07 | 6.3e+07 | 1.8e+07 | 1.03e+08 | 1.9e+08 | 8.8e+07 | > 1.2e+08 |
| Neprilysin (protein) YDDGICKSSDCIKSAARLIQNMDATTEPCTDFFKYACGGWLKRNVIPETSSRYGNFDILRDELEVVLKDVLQEPKTEDIVAVQKAKALYRSCINESAIDSRGGEPLLKLLPDIYGWPVATENWEQKYGASWTAEKAIAQLNSKYGKKVLINLFVGTDDKNSVNHVIHIDQPRLGLPSRDYYECTGIYKEACTAYVDFMISVARLIRQEERLPIDENQLALEMNKVMELEKEIANATAKPEDRNDPMLLYNKMTLAQIQNNFSLEINGKPFSWLNFTNEIMSTVNISITNEEDVVVYAPEYLTKLKPILTKYSARDLQNLMSWRFIMDLVSSLSRTYKESRNAFRKALYGTTSETATWRRCANYVNGNMENAVGRLYVEAAFAGESKHVVEDLIAQIREVFIQTLDDLTWMDAETKKRAEEKALAIKERIGYPDDIVSNDNKLNNEYLELNYKEDEYFENIIQNLKFSQSKQLKKLREKVDKDEWISGAAVVNAFYSSGRNQIVFPAGILQPPFFSAQQSNSLNYGGIGMVIGHEITHGFDDNGRNFNKDGDLVDWWTQQSASNFKEQSQCMVYQYGNFSWDLAGGQHLNGINTLGENIADNGGLGQAYRAYQNYIKKNGEEKLLPGLDLNHKQLFFLNFAQVWCGTYRPEYAVNSIKTDVHSPGNFRIIGTLQNSAEFSEAFHCRKNSYMNPEKKCRVW | 4.2e+07 | 2e+07 | 1.9e+07 | < 1e+06 | < 1e+06 | 1.2e+08 | 4.9e+07 | 1e+08 | 2.2e+07 | 8.2e+07 | 3.88e+08 | 2.2e+07 | < 1e+06 |
